Laboratory results from the supplement of paper PMC10567573.

B1: FAM9B (parent)
chain: EDLTAKRKRMKMDKTCSKTKNKSK

Variants of: B1
Test: protein stability index of a GFP-peptide fusion (GPS, HEK-293T) (PSI 1-6); higher = more stable
Conditions: c terminus: a fixed tail appended
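Further: lentivirally expressed fusions sorted by FACS into six bins by GFP to DsRed ratio, PSI derived from sequencing read proportions per bin multiplied by bin number.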

Question: With EDLTAKRKRMNMDKTCSKTKNKSK [K11N] as the variant, how does the protein stability index read?
Answer: 4.45

Question: Which protein stability index does the source give for EDLTAKRKRMYMDKTCSKTKNKSK [K11Y] here?
Answer: 4.26

Question: For EDLTAKRKRMAMDKTCSKTKNKSK [K11A], which protein stability index is on record?
Answer: 5.04

Question: With EDLTAKRKRMCMDKTCSKTKNKSK [K11C] as the variant, how does the protein stability index read?
Answer: 4.9

Question: For EDLTAKRKRMFMDKTCSKTKNKSK [K11F], which protein stability index is on record?
Answer: 5.02

Question: For EDLTAKRKRMRMDKTCSKTKNKSK [K11R], which protein stability index is on record?
Answer: 4.97

Question: For EDLTAKRKRMWMDKTCSKTKNKSK [K11W], which protein stability index is on record?
Answer: 4.83

Question: With EDLTAKRKRMHMDKTCSKTKNKSK [K11H] as the variant, how does the protein stability index read?
Answer: 5.38

Question: For EDLTAKRKRMLMDKTCSKTKNKSK [K11L], which protein stability index is on record?
Answer: 4.62

Question: With EDLTAKRKRMSMDKTCSKTKNKSK [K11S] as the variant, how does the protein stability index read?
Answer: 4.79

Question: Which protein stability index does the source give for EDLTAKRKRMDMDKTCSKTKNKSK [K11D] here?
Answer: 5.22

Question: With EDLTAKRKRMMMDKTCSKTKNKSK [K11M] as the variant, how does the protein stability index read?
Answer: 4.21

Question: With EDLTAKRKRMTMDKTCSKTKNKSK [K11T] as the variant, how does the protein stability index read?
Answer: 4.49

Question: With EDLTAKRKRMVMDKTCSKTKNKSK [K11V] as the variant, how does the protein stability index read?
Answer: 5.08

Question: For EDLTAKRKRMEMDKTCSKTKNKSK [K11E], which protein stability index is on record?
Answer: 5.29

Question: With EDLTAKRKRMIMDKTCSKTKNKSK [K11I] as the variant, how does the protein stability index read?
Answer: 4.47

Question: With EDLTAKRKRMQMDKTCSKTKNKSK [K11Q] as the variant, how does the protein stability index read?
Answer: 5.02

Question: Which protein stability index does the source give for EDLTAKRKRMPMDKTCSKTKNKSK [K11P] here?
Answer: 5.16

Question: Which protein stability index does the source give for EDLTAKRKRMGMDKTCSKTKNKSK [K11G] here?
Answer: 5.19

Question: Which protein stability index does the source give for EDLTAKRKRTKMDKTCSKTKNKSK [M10T] here?
Answer: 5.35

Question: For EDLTAKRKRKKMDKTCSKTKNKSK [M10K], which protein stability index is on record?
Answer: 5.31

Question: Which protein stability index does the source give for EDLTAKRKRWKMDKTCSKTKNKSK [M10W] here?
Answer: 4.96

Question: Which protein stability index does the source give for EDLTAKRKRPKMDKTCSKTKNKSK [M10P] here?
Answer: 4.75

Question: For EDLTAKRKRDKMDKTCSKTKNKSK [M10D], which protein stability index is on record?
Answer: 5.29

Question: With EDLTAKRKRLKMDKTCSKTKNKSK [M10L] as the variant, how does the protein stability index read?
Answer: 5.34

Question: Which protein stability index does the source give for EDLTAKRKRQKMDKTCSKTKNKSK [M10Q] here?
Answer: 5.28

Question: Which protein stability index does the source give for EDLTAKRKRNKMDKTCSKTKNKSK [M10N] here?
Answer: 4.23

Question: Which protein stability index does the source give for EDLTAKRKRGKMDKTCSKTKNKSK [M10G] here?
Answer: 4.71

Question: For EDLTAKRKRCKMDKTCSKTKNKSK [M10C], which protein stability index is on record?
Answer: 5.02

Question: For EDLTAKRKRYKMDKTCSKTKNKSK [M10Y], which protein stability index is on record?
Answer: 4.94

Question: With EDLTAKRKRRKMDKTCSKTKNKSK [M10R] as the variant, how does the protein stability index read?
Answer: 5.64

Question: Which protein stability index does the source give for EDLTAKRKRIKMDKTCSKTKNKSK [M10I] here?
Answer: 5.18

Question: For EDLTAKRKRHKMDKTCSKTKNKSK [M10H], which protein stability index is on record?
Answer: 5.43

Question: With EDLTAKRKRAKMDKTCSKTKNKSK [M10A] as the variant, how does the protein stability index read?
Answer: 4.25

Question: With EDLTAKRKREKMDKTCSKTKNKSK [M10E] as the variant, how does the protein stability index read?
Answer: 5.43

Question: Which protein stability index does the source give for EDLTAKRKRVKMDKTCSKTKNKSK [M10V] here?
Answer: 5.12

Question: With EDLTAKRKRFKMDKTCSKTKNKSK [M10F] as the variant, how does the protein stability index read?
Answer: 4.88

Question: With EDLTAKRKRSKMDKTCSKTKNKSK [M10S] as the variant, how does the protein stability index read?
Answer: 5.43

Question: For EDLTAKRKSMKMDKTCSKTKNKSK [R9S], which protein stability index is on record?
Answer: 5.47

Question: Which protein stability index does the source give for EDLTAKRKEMKMDKTCSKTKNKSK [R9E] here?
Answer: 5.12

Question: With EDLTAKRKCMKMDKTCSKTKNKSK [R9C] as the variant, how does the protein stability index read?
Answer: 5.05

Question: Which protein stability index does the source give for EDLTAKRKAMKMDKTCSKTKNKSK [R9A] here?
Answer: 5.33

Question: For EDLTAKRKDMKMDKTCSKTKNKSK [R9D], which protein stability index is on record?
Answer: 5.64

Question: For EDLTAKRKNMKMDKTCSKTKNKSK [R9N], which protein stability index is on record?
Answer: 5.38

Question: For EDLTAKRKPMKMDKTCSKTKNKSK [R9P], which protein stability index is on record?
Answer: 4.4

Question: For EDLTAKRKGMKMDKTCSKTKNKSK [R9G], which protein stability index is on record?
Answer: 4.9

Question: Which protein stability index does the source give for EDLTAKRKMMKMDKTCSKTKNKSK [R9M] here?
Answer: 5.07

Question: For EDLTAKRKLMKMDKTCSKTKNKSK [R9L], which protein stability index is on record?
Answer: 4.04

Question: Which protein stability index does the source give for EDLTAKRKHMKMDKTCSKTKNKSK [R9H] here?
Answer: 4.49

Question: For EDLTAKRKWMKMDKTCSKTKNKSK [R9W], which protein stability index is on record?
Answer: 4.48

Question: For EDLTAKRKKMKMDKTCSKTKNKSK [R9K], which protein stability index is on record?
Answer: 5.33

Question: For EDLTAKRKIMKMDKTCSKTKNKSK [R9I], which protein stability index is on record?
Answer: 4.08

Question: Which protein stability index does the source give for EDLTAKRKFMKMDKTCSKTKNKSK [R9F] here?
Answer: 5.14

Question: With EDLTAKRKVMKMDKTCSKTKNKSK [R9V] as the variant, how does the protein stability index read?
Answer: 5.09

Question: With EDLTAKRKYMKMDKTCSKTKNKSK [R9Y] as the variant, how does the protein stability index read?
Answer: 5.29

Question: With EDLTAKRKQMKMDKTCSKTKNKSK [R9Q] as the variant, how does the protein stability index read?
Answer: 5.58

Question: With EDLTAKRKTMKMDKTCSKTKNKSK [R9T] as the variant, how does the protein stability index read?
Answer: 5.11

Question: For EDLTAKRKRMKVDKTCSKTKNKSK [M12V], which protein stability index is on record?
Answer: 4.45

Question: For EDLTAKRKRMKQDKTCSKTKNKSK [M12Q], which protein stability index is on record?
Answer: 5.03

Question: With EDLTAKRKRMKWDKTCSKTKNKSK [M12W] as the variant, how does the protein stability index read?
Answer: 3.86

Question: For EDLTAKRKRMKSDKTCSKTKNKSK [M12S], which protein stability index is on record?
Answer: 5.9

Question: Which protein stability index does the source give for EDLTAKRKRMKCDKTCSKTKNKSK [M12C] here?
Answer: 5.06

Question: For EDLTAKRKRMKHDKTCSKTKNKSK [M12H], which protein stability index is on record?
Answer: 5.44

Question: For EDLTAKRKRMKADKTCSKTKNKSK [M12A], which protein stability index is on record?
Answer: 5.02

Question: With EDLTAKRKRMKPDKTCSKTKNKSK [M12P] as the variant, how does the protein stability index read?
Answer: 5.61

Question: With EDLTAKRKRMKEDKTCSKTKNKSK [M12E] as the variant, how does the protein stability index read?
Answer: 5.78

Question: For EDLTAKRKRMKNDKTCSKTKNKSK [M12N], which protein stability index is on record?
Answer: 4.67

Question: For EDLTAKRKRMKIDKTCSKTKNKSK [M12I], which protein stability index is on record?
Answer: 5.03

Question: With EDLTAKRKRMKYDKTCSKTKNKSK [M12Y] as the variant, how does the protein stability index read?
Answer: 5.16

Question: For EDLTAKRKRMKDDKTCSKTKNKSK [M12D], which protein stability index is on record?
Answer: 5.18

Question: With EDLTAKRKRMKTDKTCSKTKNKSK [M12T] as the variant, how does the protein stability index read?
Answer: 5.54

Question: With EDLTAKRKRMKKDKTCSKTKNKSK [M12K] as the variant, how does the protein stability index read?
Answer: 4.79

Question: For EDLTAKRKRMKFDKTCSKTKNKSK [M12F], which protein stability index is on record?
Answer: 4.95

Question: With EDLTAKRKRMKGDKTCSKTKNKSK [M12G] as the variant, how does the protein stability index read?
Answer: 5.76

Question: Which protein stability index does the source give for EDLTAKRKRMKRDKTCSKTKNKSK [M12R] here?
Answer: 4.72

Question: With EDLTAKRKRMKLDKTCSKTKNKSK [M12L] as the variant, how does the protein stability index read?
Answer: 4.79

Question: For EDLTAKRKRMKMFKTCSKTKNKSK [D13F], which protein stability index is on record?
Answer: 4.26

Question: With EDLTAKRKRMKMEKTCSKTKNKSK [D13E] as the variant, how does the protein stability index read?
Answer: 5.57

Question: With EDLTAKRKRMKMAKTCSKTKNKSK [D13A] as the variant, how does the protein stability index read?
Answer: 4.99

Question: Which protein stability index does the source give for EDLTAKRKRMKMGKTCSKTKNKSK [D13G] here?
Answer: 5.48

Question: Which protein stability index does the source give for EDLTAKRKRMKMCKTCSKTKNKSK [D13C] here?
Answer: 4.33

Question: For EDLTAKRLRMKMDKTCSKTKNKSK [K8L], which protein stability index is on record?
Answer: 4.38

Question: For EDLTAKRHRMKMDKTCSKTKNKSK [K8H], which protein stability index is on record?
Answer: 4.97

Question: For EDLTAKRGRMKMDKTCSKTKNKSK [K8G], which protein stability index is on record?
Answer: 4.75

Question: With EDLTAKRRRMKMDKTCSKTKNKSK [K8R] as the variant, how does the protein stability index read?
Answer: 5.15

Question: Which protein stability index does the source give for EDLTAKRPRMKMDKTCSKTKNKSK [K8P] here?
Answer: 5.5

Question: For EDLTAKRWRMKMDKTCSKTKNKSK [K8W], which protein stability index is on record?
Answer: 4.77

Question: Which protein stability index does the source give for EDLTAKRVRMKMDKTCSKTKNKSK [K8V] here?
Answer: 5.13

Question: Which protein stability index does the source give for EDLTAKRSRMKMDKTCSKTKNKSK [K8S] here?
Answer: 5.39

Question: With EDLTAKRIRMKMDKTCSKTKNKSK [K8I] as the variant, how does the protein stability index read?
Answer: 4.4

Question: With EDLTAKRTRMKMDKTCSKTKNKSK [K8T] as the variant, how does the protein stability index read?
Answer: 4.97

Question: For EDLTAKRQRMKMDKTCSKTKNKSK [K8Q], which protein stability index is on record?
Answer: 3.39

Question: For EDLTAKRYRMKMDKTCSKTKNKSK [K8Y], which protein stability index is on record?
Answer: 4.33

Question: With EDLTAKRNRMKMDKTCSKTKNKSK [K8N] as the variant, how does the protein stability index read?
Answer: 5.53
